Consider 1 molecule from patent EP2918281A1 (Max-Planck-Gesellschaft zur Förderung der Wissenschaften …, dated 2015).

This assay has as its target HIV-1 protease (EC 3.4.23.16) (HIV-1). The assay can be described thus: cell-based or functional assay.

B1: inhibitor 04 (other, not shown: small tags and cut ends)
chain: KMEGKSMLKLSHVLAFLLLASLFQSLMARDLISDGIEVLQLPVENEGESVFCPGKLSWPELVGMPAGYAKAIIEKENSIVHDVRLLLPGMVKPANYVCGRVFLVVDLKLIVQIPPSMG
Consider B1, for which the “IC50 (enzyme inhibition)” value is 0.67 µM.
